Test results from patent US20200369765A1 (INNATE PHARMA, published 2020).

What was measured:
[1] = target: T1, Human Siglec-3 (human, UniProt P20138 18-364); assay: flow cytometry, CHO transfectants
T1 construct: Expressed on transfected CHO cells; also called HuSiglec-3; CD33

[2] = target: T2, Human Siglec-5 (human, UniProt O15389 17-551); assay: flow cytometry, CHO transfectants
T2 construct: Expressed on transfected CHO cells; also called HuSiglec-5
T2 sequence: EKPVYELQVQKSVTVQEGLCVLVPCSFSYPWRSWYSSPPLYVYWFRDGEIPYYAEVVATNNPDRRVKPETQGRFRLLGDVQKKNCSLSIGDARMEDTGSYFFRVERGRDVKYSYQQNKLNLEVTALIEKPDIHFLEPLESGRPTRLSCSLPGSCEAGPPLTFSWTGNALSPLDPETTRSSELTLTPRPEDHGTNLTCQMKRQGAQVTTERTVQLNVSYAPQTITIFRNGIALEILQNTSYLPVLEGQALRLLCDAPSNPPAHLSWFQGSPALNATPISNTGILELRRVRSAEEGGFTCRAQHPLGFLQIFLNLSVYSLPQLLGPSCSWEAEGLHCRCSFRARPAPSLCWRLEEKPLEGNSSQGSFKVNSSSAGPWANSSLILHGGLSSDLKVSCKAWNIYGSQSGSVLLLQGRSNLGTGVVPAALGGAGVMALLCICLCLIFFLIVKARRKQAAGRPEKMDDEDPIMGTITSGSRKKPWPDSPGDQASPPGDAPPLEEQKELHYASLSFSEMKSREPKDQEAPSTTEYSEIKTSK

[3] = target: T3, Human Siglec-6 (human, UniProt O43699 27-453); assay: flow cytometry, CHO transfectants
T3 construct: Expressed on transfected CHO cells; also called HuSiglec-6
T3 sequence (O43699 other isoform, or with tags, fused parts or gaps): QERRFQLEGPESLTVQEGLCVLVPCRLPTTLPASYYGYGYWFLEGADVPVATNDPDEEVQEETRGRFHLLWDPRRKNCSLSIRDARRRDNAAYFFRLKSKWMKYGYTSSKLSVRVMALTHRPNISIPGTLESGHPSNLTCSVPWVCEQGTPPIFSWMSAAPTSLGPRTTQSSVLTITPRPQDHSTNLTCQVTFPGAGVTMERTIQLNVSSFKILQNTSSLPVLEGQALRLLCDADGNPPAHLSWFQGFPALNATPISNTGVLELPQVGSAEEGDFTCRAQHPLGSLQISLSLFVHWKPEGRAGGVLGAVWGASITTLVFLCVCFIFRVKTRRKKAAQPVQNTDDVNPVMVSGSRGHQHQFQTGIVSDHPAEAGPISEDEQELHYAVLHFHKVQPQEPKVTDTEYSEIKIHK

[4] = target: T4, Human Siglec-8 (human, UniProt Q9NYZ4 17-499); assay: flow cytometry, CHO transfectants
T4 construct: Expressed on transfected CHO cells; also called HuSiglec-8
T4 sequence (Q9NYZ4 17-499): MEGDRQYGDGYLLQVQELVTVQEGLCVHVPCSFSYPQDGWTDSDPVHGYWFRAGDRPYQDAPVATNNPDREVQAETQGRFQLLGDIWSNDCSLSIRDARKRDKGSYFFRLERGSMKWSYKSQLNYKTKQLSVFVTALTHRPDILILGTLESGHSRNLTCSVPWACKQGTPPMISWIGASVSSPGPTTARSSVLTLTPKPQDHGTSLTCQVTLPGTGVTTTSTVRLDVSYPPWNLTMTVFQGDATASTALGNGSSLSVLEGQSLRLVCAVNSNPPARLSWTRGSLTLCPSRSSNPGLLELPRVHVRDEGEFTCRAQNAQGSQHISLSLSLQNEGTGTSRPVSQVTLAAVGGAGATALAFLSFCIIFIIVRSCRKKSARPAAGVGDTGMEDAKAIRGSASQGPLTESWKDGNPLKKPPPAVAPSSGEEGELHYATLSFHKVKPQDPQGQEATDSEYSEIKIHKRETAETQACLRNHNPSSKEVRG

[5] = target: T5, Human Siglec-10 (human, UniProt Q96LC7 17-697); assay: flow cytometry, CHO transfectants
T5 construct: Expressed on transfected CHO cells; also called HuSiglec-10
T5 sequence: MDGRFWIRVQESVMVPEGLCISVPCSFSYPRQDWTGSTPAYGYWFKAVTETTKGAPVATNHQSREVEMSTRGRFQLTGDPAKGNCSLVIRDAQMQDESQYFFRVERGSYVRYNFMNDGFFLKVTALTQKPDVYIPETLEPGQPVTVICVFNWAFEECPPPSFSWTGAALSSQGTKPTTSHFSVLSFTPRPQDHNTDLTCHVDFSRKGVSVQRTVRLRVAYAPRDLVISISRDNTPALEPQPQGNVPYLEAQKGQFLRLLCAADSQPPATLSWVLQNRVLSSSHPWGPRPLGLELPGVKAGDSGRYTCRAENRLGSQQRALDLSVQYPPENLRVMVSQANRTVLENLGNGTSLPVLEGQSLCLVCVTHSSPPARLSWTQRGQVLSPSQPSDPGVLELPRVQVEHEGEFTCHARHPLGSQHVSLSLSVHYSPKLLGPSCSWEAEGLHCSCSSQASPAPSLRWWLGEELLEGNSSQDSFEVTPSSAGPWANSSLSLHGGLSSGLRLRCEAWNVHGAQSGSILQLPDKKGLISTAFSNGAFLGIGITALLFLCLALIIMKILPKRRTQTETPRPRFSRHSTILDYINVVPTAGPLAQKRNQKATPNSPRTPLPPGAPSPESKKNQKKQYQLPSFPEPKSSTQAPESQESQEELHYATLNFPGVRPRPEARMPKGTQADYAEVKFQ

[6] = target: T6, Human Siglec-11 (human, UniProt Q96RL6 29-698); assay: flow cytometry, CHO transfectants
T6 construct: Expressed on transfected CHO cells; also called HuSiglec-11
T6 sequence: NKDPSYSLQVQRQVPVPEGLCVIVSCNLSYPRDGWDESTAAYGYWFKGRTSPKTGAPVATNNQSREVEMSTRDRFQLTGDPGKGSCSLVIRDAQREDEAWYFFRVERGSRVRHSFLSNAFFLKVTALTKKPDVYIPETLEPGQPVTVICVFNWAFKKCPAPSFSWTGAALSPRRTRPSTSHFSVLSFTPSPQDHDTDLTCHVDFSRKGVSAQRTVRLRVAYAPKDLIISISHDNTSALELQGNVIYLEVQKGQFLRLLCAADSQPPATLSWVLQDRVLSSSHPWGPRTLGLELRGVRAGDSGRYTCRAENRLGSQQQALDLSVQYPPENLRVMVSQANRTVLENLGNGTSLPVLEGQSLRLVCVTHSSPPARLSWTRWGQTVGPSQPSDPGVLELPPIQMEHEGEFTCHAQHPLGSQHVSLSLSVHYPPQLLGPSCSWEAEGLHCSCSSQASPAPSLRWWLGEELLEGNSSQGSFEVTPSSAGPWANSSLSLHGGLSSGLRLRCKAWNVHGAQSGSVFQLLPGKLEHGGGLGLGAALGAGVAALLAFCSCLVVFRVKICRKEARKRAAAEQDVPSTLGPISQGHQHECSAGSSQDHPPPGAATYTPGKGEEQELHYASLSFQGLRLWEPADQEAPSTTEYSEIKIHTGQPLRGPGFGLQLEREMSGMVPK

[7] = target: T7, Human Siglec-12 (human, UniProt Q96PQ1 19-595); assay: flow cytometry, CHO transfectants
T7 construct: Expressed on transfected CHO cells; also called HuSiglec-12
T7 sequence (Q96PQ1 19-595): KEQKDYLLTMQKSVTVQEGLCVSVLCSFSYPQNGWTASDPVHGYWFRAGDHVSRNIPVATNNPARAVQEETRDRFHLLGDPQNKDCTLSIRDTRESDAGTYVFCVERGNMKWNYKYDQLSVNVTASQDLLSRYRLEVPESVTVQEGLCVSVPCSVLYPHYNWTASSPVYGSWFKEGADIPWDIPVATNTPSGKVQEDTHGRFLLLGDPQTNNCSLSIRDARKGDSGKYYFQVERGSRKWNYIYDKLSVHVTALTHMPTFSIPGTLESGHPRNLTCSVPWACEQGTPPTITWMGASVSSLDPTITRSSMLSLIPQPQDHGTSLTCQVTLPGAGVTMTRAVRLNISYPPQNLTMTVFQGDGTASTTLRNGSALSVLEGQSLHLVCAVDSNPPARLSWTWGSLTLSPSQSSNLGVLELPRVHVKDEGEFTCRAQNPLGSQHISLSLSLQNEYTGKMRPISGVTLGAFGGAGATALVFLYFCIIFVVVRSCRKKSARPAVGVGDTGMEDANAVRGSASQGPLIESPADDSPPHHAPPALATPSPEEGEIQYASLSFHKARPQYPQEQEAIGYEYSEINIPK

[8] = target: T8, Human Siglec-9 mutant M2 (human, UniProt Q9Y336 18-463); assay: flow cytometry, HEK293T transfectants
T8 construct: Expressed on HEK293T cells; also called Mutant 2
T8 sequence (Q9Y336 other isoform, or with tags, fused parts or gaps mutant): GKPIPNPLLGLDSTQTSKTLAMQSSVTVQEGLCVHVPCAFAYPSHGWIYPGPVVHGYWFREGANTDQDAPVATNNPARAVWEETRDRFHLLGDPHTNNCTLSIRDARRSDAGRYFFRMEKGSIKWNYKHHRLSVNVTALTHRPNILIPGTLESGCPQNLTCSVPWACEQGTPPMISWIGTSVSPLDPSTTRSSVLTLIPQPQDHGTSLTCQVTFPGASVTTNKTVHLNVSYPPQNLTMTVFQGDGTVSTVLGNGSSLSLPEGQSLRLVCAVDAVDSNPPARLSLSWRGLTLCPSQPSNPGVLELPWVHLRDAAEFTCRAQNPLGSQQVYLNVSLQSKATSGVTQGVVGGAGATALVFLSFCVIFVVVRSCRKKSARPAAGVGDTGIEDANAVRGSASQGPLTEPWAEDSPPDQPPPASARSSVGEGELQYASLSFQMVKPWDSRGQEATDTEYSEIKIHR

[9] = target: T9, Human Siglec-9 mutant M3 (human, UniProt Q9Y336 18-463); assay: flow cytometry, HEK293T transfectants
T9 construct: Expressed on HEK293T cells; also called Mutant 3
T9 sequence (Q9Y336 other isoform, or with tags, fused parts or gaps mutant): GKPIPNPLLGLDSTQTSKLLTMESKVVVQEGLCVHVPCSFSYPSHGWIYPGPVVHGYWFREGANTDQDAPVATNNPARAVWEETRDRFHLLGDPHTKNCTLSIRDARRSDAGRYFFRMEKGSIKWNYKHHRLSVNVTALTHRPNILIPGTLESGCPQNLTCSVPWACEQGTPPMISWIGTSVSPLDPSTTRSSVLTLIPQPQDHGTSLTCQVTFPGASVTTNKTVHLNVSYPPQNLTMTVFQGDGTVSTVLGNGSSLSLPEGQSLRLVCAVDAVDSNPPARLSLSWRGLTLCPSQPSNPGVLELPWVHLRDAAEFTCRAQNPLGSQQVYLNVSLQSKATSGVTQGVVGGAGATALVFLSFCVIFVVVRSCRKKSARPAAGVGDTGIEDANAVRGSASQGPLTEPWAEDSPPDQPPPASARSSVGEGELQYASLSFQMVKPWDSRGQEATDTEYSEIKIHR

[10] = target: T10, Human Siglec-9 mutant M5 (human, UniProt Q9Y336 18-463); assay: flow cytometry, HEK293T transfectants
T10 construct: Expressed on HEK293T cells; also called Mutant 5
T10 sequence (Q9Y336 other isoform, or with tags, fused parts or gaps mutant): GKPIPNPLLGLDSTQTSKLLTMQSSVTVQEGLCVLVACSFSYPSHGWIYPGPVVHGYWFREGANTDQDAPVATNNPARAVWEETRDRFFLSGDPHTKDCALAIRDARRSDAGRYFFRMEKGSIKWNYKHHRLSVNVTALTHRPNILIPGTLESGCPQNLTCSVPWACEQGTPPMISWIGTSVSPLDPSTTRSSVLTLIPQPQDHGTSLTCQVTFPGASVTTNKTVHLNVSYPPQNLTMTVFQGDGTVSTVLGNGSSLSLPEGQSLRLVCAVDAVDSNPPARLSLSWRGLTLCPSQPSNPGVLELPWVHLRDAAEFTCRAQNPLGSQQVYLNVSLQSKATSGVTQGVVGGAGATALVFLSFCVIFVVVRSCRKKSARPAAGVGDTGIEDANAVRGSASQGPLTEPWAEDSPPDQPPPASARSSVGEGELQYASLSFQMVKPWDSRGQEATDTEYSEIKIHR

[11] = target: T11, Human Siglec-9 mutant M7 (human, UniProt Q9Y336 18-463); assay: flow cytometry, HEK293T transfectants
T11 construct: Expressed on HEK293T cells; also called Mutant 7
T11 sequence (Q9Y336 other isoform, or with tags, fused parts or gaps mutant): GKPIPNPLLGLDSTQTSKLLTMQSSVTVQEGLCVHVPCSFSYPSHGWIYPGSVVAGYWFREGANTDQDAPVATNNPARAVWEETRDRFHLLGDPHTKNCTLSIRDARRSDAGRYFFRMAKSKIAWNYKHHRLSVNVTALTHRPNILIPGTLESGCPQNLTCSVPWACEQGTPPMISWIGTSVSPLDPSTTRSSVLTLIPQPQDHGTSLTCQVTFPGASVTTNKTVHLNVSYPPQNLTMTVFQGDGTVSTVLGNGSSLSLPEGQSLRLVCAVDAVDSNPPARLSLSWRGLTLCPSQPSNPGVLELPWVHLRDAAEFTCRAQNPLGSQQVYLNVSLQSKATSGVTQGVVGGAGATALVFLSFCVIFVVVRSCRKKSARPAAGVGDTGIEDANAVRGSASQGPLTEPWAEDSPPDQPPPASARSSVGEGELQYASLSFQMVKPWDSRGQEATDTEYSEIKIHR

[12] = target: T12, Human Siglec-9 mutant M14 (human, UniProt Q9Y336 18-463); assay: flow cytometry, HEK293T transfectants
T12 construct: Expressed on HEK293T cells; also called Mutant 14
T12 sequence (Q9Y336 other isoform, or with tags, fused parts or gaps mutant): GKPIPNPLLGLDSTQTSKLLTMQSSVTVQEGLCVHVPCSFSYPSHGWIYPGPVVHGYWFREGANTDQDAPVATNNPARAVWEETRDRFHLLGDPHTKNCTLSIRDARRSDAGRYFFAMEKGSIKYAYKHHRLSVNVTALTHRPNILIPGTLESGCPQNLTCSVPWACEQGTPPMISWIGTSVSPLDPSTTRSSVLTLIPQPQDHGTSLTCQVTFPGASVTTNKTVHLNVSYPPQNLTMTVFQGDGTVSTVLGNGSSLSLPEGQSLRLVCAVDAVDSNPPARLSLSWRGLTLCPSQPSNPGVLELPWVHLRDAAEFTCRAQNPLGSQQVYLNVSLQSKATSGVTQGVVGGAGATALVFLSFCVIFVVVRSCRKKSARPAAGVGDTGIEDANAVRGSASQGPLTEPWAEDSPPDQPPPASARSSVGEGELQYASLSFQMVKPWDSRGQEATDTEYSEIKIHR

[13] = target: T13, Human Siglec-9 mutant M15 (human, UniProt Q9Y336 18-463); assay: flow cytometry, HEK293T transfectants
T13 construct: Expressed on HEK293T cells; also called Mutant 15
T13 sequence (Q9Y336 other isoform, or with tags, fused parts or gaps mutant): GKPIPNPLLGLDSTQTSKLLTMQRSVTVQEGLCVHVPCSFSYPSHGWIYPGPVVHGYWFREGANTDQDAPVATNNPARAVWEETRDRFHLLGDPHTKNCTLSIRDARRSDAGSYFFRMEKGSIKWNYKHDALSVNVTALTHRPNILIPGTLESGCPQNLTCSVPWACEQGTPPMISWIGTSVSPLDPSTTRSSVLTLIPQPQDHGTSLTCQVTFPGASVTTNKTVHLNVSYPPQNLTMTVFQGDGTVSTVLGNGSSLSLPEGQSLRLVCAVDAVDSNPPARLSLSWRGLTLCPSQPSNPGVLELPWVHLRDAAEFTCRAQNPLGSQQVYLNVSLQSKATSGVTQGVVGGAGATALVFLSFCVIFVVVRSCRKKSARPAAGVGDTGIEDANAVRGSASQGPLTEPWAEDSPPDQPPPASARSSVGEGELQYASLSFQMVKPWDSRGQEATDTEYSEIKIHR

T1 sequence (P20138 18-364 R69G): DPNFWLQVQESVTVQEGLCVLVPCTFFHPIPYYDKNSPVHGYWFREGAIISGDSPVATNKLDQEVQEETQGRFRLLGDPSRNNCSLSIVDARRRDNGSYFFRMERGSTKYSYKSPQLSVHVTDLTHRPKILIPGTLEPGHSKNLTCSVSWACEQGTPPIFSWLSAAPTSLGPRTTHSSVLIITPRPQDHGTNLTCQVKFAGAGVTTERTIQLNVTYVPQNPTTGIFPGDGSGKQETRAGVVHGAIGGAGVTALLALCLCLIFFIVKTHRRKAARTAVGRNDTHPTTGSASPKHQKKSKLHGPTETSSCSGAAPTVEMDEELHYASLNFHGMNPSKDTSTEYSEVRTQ

B1: mAbF (antibody, human IgG1, V domains shown)
VH: QVQLQQSGPEVVRPGVSVKISCKGSGYTFTDYSMHWVKQSHAKSLEWIGVISTYNGNTNYNQKFKGKATMTVDKSSSTAYMELARLTSEDSAIYYCARRGYYGSSSWFGYWGQGTLVTVSA
VL: DIVMTQSQKFMSTSVGDRVSVTCKASQNVGTDVAWYQQKPGQSPEALIYSASYRYSGVPDRFTGSGSGADFTLTISNVQSEDLAEYFCQQYNSFPYTFGGGTKLEIK
binding result [1]: no binding | binding result [2]: no binding | binding result [3]: no binding | binding result [4]: no binding | binding result [5]: no binding | binding result [6]: no binding | binding result [7]: no binding | binding result [8]: binds | binding result [9]: binds | binding result [10]: binds | binding result [11]: binds | binding result [12]: binds | binding result [13]: binds

B2: mAb1 (antibody, human IgG1, V domains shown)
VH: DVQLQESGPGLVKPSQSLSLTCTVTGYSITGGFAWNWIRQFPGNTLEWMGYIGYGGSTSYNPSLNSRISITRDTSKNHFFLQFNSVTTDDSATYYCARGDYLFAYWGQGTLVTVSA
VL: DIVMTQSHKFMSTSVGDRVSITCKASQDVNTAVAWYQQKPGQSPKLLIYSASYRYTGVPDRFTGSGSGTDFTFTISSVQAEDLAVYYCQQHYSTPRTFGGGTKLEIK
binding result [1]: no binding | binding result [2]: no binding | binding result [3]: no binding | binding result [4]: no binding | binding result [5]: no binding | binding result [6]: no binding | binding result [7]: binds | binding result [8]: binds | binding result [9]: binds | binding result [10]: binds | binding result [11]: binds | binding result [12]: binds | binding result [13]: binds

B3: mAb3 (antibody, human IgG1, V domains shown)
VH: EVQLLETGPGLVKPSQSLSLTCTVTGYSITGGFAWNWIRQFPGNTLEWMGYIGYGGSTSYNPSLNSRISITRDTSKNHFFLQFNSVTTEDSATYYCARGDYLFAYWGQGTLVTVSA
VL: DILMTQSPASLSASVGETVSITCRASGNIHNYLAWYLQRQGKSPQLLVYNAKTLADGVPSRFSGTGSGTQFSLKINSLQPEDFGSYYCQHFWSTPRTFGGGTKLEIK
binding result [1]: no binding | binding result [2]: no binding | binding result [3]: no binding | binding result [4]: no binding | binding result [5]: no binding | binding result [6]: no binding | binding result [7]: binds | binding result [8]: binds | binding result [9]: binds | binding result [10]: binds | binding result [11]: binds | binding result [12]: binds | binding result [13]: binds

B4: mAb2 (antibody, human IgG1, V domains shown)
VH: EVQLQESGPGLVKPSQSLSLTCTVTGYSITGGFAWNWIRQFPGNTLEWMGYIGYGGSTSYNPSLNSRISITRDTSKNHFFLQFNSVTTEDSATYYCARGDYLFAYWGQGTLVTVSA
VL: DIVMTQSHKFMSTSVGDRVSITCKASQDVNTAVAWYQQKPGQSPKLLIYSASYRYTGVPDRFTGSGSGTDFTFTISSVQAEDLAVYYCQQHYSTPRTFGGGTKLEIK
binding result [1]: no binding | binding result [2]: no binding | binding result [3]: no binding | binding result [4]: no binding | binding result [5]: no binding | binding result [6]: no binding | binding result [7]: binds | binding result [8]: binds | binding result [9]: binds | binding result [10]: binds | binding result [11]: binds | binding result [12]: binds | binding result [13]: binds

B5: mAbE (antibody, human IgG1, V domains shown)
VH: DVQLVESGGGLVQPGGSRKLSCAASGFTFSTFGMHWVRQAPEKGLEWVAYISSGSNAIYYADTVKGRFTISRDNPKNTLFLQMTSLRSEDTAMYYCASPGYGAWFAYWGQGTLVTVSA
VL: ENVLTQSPAIMSASPGEKVTMTCRASSSVSSAYLHWYQQKSGASPKLWIYSTSNLASGVPARFSGSGSGTSYSLTISSVEAEDAATYYCQQYSAYPYTFGGGTKLEIK
binding result [1]: no binding | binding result [2]: no binding | binding result [3]: no binding | binding result [4]: no binding | binding result [5]: no binding | binding result [6]: no binding | binding result [7]: no binding | binding result [8]: binds | binding result [9]: binds | binding result [10]: binds | binding result [11]: binds | binding result [12]: binds | binding result [13]: binds
